Laboratory results: publication PMC6757426, “Stability and flexibility of full-length human oligodendrocytic QKI6” (BMC Research Notes, 2019)

Molecular target: the molecule itself
Assay: SEC-MALS; Superdex 200 pg increase 10/300GL, 20 mM Tris-HCl, 300 mM NaCl, 0.5 mM TCEP, pH 8.0; 200 ug QKI6 injected at 0.4 ml/min; no RNA

B1: Quaking isoform 6 (QKI6), full-length human (natural protein, UniProt Q96PU8-9 1-319, looked up)
chain: MVGEMETKEKPKPTPDYLMQLMNDKKLMSSLPNFCGIFNHLERLLDEEISRVRKDMYNDTLNGSTEKRSAELPDAVGPIVQLQEKLYVPVKEYPDFNFVGRILGPRGLTAKQLEAETGCKIMVRGKGSMRDKKKEEQNRGKPNWEHLNEDLHVLITVEDAQNRAEIKLKRAVEEVKKLLVPAAEGEDSLKKMQLMELAILNGTYRDANIKSPALAFSLAATAQAAPRIITGPAPVLPPAALRTPTPAGPTIMPLIRQIQTAVMPNGTPHPTAAIVPPGPEAGLIYTPYEYPYTLAPATSILEYPIEPSGVLGMAFPTKG
notes: Quaking isoform 6 (QKI6), human, UniProt Q96PU8-9, amino acids 1-319; calculated molecular weight of the construct 35,187.8 Da; also called full-length QKI6; human QKI6; source: E. coli BL21(DE3), purified (Ni-NTA, TEV digestion, second Ni-NTA, gel filtration on Superdex 200)
Question: B1 was tested. Which “stoichiometry N” value did it give?
Answer: 2
